In the supplement of paper PMC7125110:
± gives the standard error. For some of these results: Fewer inactive variants are shown than the library holds.

B1: glmS ribozyme (parent)
chain: AUAAAAGCGCCAGAACUACAGAAAUGUAGUUGACGAGGAGGAGGUUUAUCGAAUUUUCGGCGGAUGCCUCCAAA

Columns and labels:
Conditions in all cases: with glucosamine-6-phosphate
glucosamine-6-phosphate [1] = variants of: B1; assay: kcat; higher = faster cleavage; RNA array
In short: (§1)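 Barcoded ribozyme variants were transcribed in situ on sequenced MiSeq chips by E. coli RNA polymerase. At 37 °C, a hybridised Cy3 probe tracked them while glucosamine-6-phosphate (40 μM to 10 mM) in HEPES/KCl/Mg(OAc)2 buffer flowed in and tiles were imaged over ~14 h. Per-tile medians of signals normalised to baseline and to non-cleaving reference variants were fit to one- or two-exponential decays, giving kobs. kcat and KM came from weighted Michaelis–Menten fits across concentrations.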

glucosamine-6-phosphate [2] = variants of: B1; assay: KM; higher = weaker cofactor use; RNA array
In short: as §1

glucosamine-6-phosphate [3] = variants of: B1; assay: self-cleavage kobs at 10000 uM GlcN6P; higher = faster cleavage; RNA array
In short: as §1

glucosamine-6-phosphate [4] = variants of: B1; assay: self-cleavage kobs at 640 uM GlcN6P; higher = faster cleavage; RNA array
In short: as §1

glucosamine-6-phosphate [5] = variants of: B1; assay: self-cleavage kobs at 2500 uM GlcN6P; higher = faster cleavage; RNA array
In short: as §1

glucosamine-6-phosphate [6] = variants of: B1; assay: self-cleavage kobs at 160 uM GlcN6P; higher = faster cleavage; RNA array
In short: as §1

glucosamine-6-phosphate [7] = variants of: B1; assay: self-cleavage kobs at 40 uM GlcN6P; higher = faster cleavage; RNA array
In short: as §1

Variant | kcat (glucosamine-6-phosphate [1]) | KM (glucosamine-6-phosphate [2]) | self-cleavage kobs at 10000 uM GlcN6P (glucosamine-6-phosphate [3]) | self-cleavage kobs at 640 uM GlcN6P (glucosamine-6-phosphate [4]) | self-cleavage kobs at 2500 uM GlcN6P (glucosamine-6-phosphate [5]) | self-cleavage kobs at 160 uM GlcN6P (glucosamine-6-phosphate [6]) | self-cleavage kobs at 40 uM GlcN6P (glucosamine-6-phosphate [7])
AUAAAAGCGCCAGAACUACAGAAAUGUAGUUGACGAGGAUGAGGUUUAUCGAAUCUUCGGCGGAUGCCUCCAAA [G40U U55C] | 0.000228 ± 3.6e-06 s⁻¹ | 6810 ± 240 µM | 0.000135 ± 1.7e-05 s⁻¹ | – | – | – | –
AUAAAAGCGCCAGAACUACAGAAAUGUAGUUUACGAGGAGGAGGUUUAUCGAAUUUUCGGCGGAUGCCCCCAAA [G32U U69C] | 0.00053 ± 3.6e-05 s⁻¹ | 3470 ± 470 µM | 0.000391 ± 5.4e-05 s⁻¹ | 7.6e-05 ± 2.3e-05 s⁻¹ | 0.000232 ± 4.8e-05 s⁻¹ | – | –
AUAAAAGCGCCAGAGCUACAGAAAUGUAGUUGACGAGGAGGAGGUUUAUCGAAUUUUCGGCGGACGCCUCCAAA [A15G U65C] | 0.000964 ± 0.00027 s⁻¹ | – | 0.000673 ± 0.00014 s⁻¹ | 0.00026 ± 5e-05 s⁻¹ | 0.000852 ± 0.00013 s⁻¹ | 7.34e-05 ± 2.9e-05 s⁻¹ | –
AUAAAAGCGCCAGAACUAAAGAAAUGUAGUUGACGAGGAGGAGGUUUAUCGAAUUUUCGGCGGAUGCCUCCAAA [C19A] | 0.0165 ± 0.0045 s⁻¹ | 610 ± 220 µM | 0.0275 ± 0.0046 s⁻¹ | 0.00758 ± 0.00099 s⁻¹ | 0.011 ± 0.0021 s⁻¹ | 0.00456 ± 0.00078 s⁻¹ | 0.00101 ± 8.1e-05 s⁻¹
AUAAAAGCGCCAGAACUACAGAAAUGUAGUUGACGAGGAUGAGGUUUAUCGGAUUUUCGGCGGAUGCCUCCAAA [G40U A52G] | 0.000217 ± 3.4e-05 s⁻¹ | 1490 ± 600 µM | 0.000206 ± 2.5e-05 s⁻¹ | 7.61e-05 ± 1.5e-05 s⁻¹ | 0.000112 ± 1.8e-05 s⁻¹ | – | –
AUAAAAGCGCCAGUACUACAGAAAUGUAGUUGACGAGGAGGAGGGUUAUCGAAUUUUCGGCGGAUGCUUCCAAA [A14U U45G C68U] | 0.000104 ± 5.1e-06 s⁻¹ | 786 ± 160 µM | 9.78e-05 ± 1.7e-05 s⁻¹ | 4.96e-05 ± 1.7e-05 s⁻¹ | 7.43e-05 ± 2.3e-05 s⁻¹ | – | –
AUAAAAGCGCCAGAACUACAGAAAUGUAGUUGACGAAGAGGAAGUUUAUCGAAUUUUCGGCGGAUGCCUCCAAA [G37A G43A] | 2.89e-05 ± 3.1e-06 s⁻¹ | – | 2.52e-05 ± 8.5e-06 s⁻¹ | – | – | < 1e-05 s⁻¹ | < 1e-05 s⁻¹
AUAAAAGCGCCACAACUACAGAAAUGUAGUUGACGAGGACGAGGUUUAUCGAAUUUUCGGCGGAUGCCUCCAAA [G13C G40C] | 4.48e-05 ± 2e-05 s⁻¹ | – | – | – | – | < 1e-05 s⁻¹ | < 1e-05 s⁻¹
AUAAAAGCGUCGGAACUACAGAAAUGUAGUUGACGAGGAGGAGGUUUAUCGAAUUUUCGGCGGAUGCCUCCAAA [C10U A12G] | 2.19e-05 ± 1.8e-06 s⁻¹ | 2150 ± 870 µM | – | – | – | – | –
AUAAAAGCGCUAGAACUACAGAAAUGUAUUUGACGAGGAGGAGGUUUAUCGAAUUUUCGGCGGAUGCCUCCAAA [C11U G29U] | 0.000681 ± 0.00029 s⁻¹ | – | 0.000463 ± 6.1e-05 s⁻¹ | 7.49e-05 ± 1.3e-05 s⁻¹ | 0.000407 ± 6.3e-05 s⁻¹ | 5.37e-05 ± 1.3e-05 s⁻¹ | –
AUAAAAGCGCCAGAACUACAGAAAUGUAGUUGACGAGCAGGAGGUUUAGCGAAUUUUCGGCGGAUGCAUCCAAA [G38C U49G C68A] | 1.34e-05 ± 4.6e-06 s⁻¹ | – | – | – | – | – | –
AUAAAAGCGCCAGAACUACAGAAAUGUAGUUGACGAAGAGGAGGUUUAUCGAAUUUUCGGCAGAUGCCUCCAAA [G37A G62A] | < 1e-05 s⁻¹ | – | < 1e-05 s⁻¹ | < 1e-05 s⁻¹ | – | – | < 1e-05 s⁻¹
AUAAAAGCGCGAGAACUACAGAAAUGUAGUUGACGAGGAGGAAGUUUAUCGAAUUUUCGGCGGAUGCCUCCAAA [C11G G43A] | < 1e-05 s⁻¹ | 525 ± 190 µM | < 1e-05 s⁻¹ | < 1e-05 s⁻¹ | – | < 1e-05 s⁻¹ | < 1e-05 s⁻¹
AUAAAAGCGCCACAACUACAGAAAUGUAGCUGACGAGGAGGAGGUUUAUCGAAUUUUCGGCGGAUGCCUCCAAA [G13C U30C] | 0.000129 ± 2e-05 s⁻¹ | 1470 ± 480 µM | – | 4.05e-05 ± 1.7e-05 s⁻¹ | 8.07e-05 ± 2e-05 s⁻¹ | – | < 1e-05 s⁻¹
AUAAAAGCGCCAGAACUACAGAAAUGUAGUAGACGAGGAGGAGGUUUAUCGAAUUUUCGGCGGAUGUCUCCAAA [U31A C67U] | 0.00291 ± 0.0011 s⁻¹ | – | 0.00427 ± 0.00063 s⁻¹ | 0.00143 ± 0.00019 s⁻¹ | 0.00135 ± 0.00029 s⁻¹ | 0.000324 ± 8.8e-05 s⁻¹ | 0.000116 ± 1.4e-05 s⁻¹
AUAAAAGCGCCAGAACUACAGAAAUGUAGUUGACGAGGAGGAGGUUUAUCGAUUUUUCGGCGGAUGCGUCCAAA [A53U C68G] | 7.87e-05 ± 9.6e-06 s⁻¹ | – | 7.67e-05 ± 7.9e-06 s⁻¹ | 6.63e-05 ± 1.1e-05 s⁻¹ | 7.65e-05 ± 1.4e-05 s⁻¹ | 8.2e-05 ± 1.4e-05 s⁻¹ | –
AUAAAAGCGCCAGCACUACAGAAAUGUAGUUGACGAGGAGGAGGUUUAUCGAAUUUCCGGCGGAUGCCUCCAAA [A14C U57C] | 5.66e-05 ± 5.7e-07 s⁻¹ | 1390 ± 73 µM | 4.96e-05 ± 7.4e-06 s⁻¹ | – | 3.68e-05 ± 1.3e-05 s⁻¹ | – | < 1e-05 s⁻¹
